Our source for the Kd values is publication PMC6997759 (2019).

Test [1] deals with AE.A244gp120Δ11 (N-terminal 11 aa deleted) (HIV-1 (clade AE, A244)). As to the kind of experiment: SPR; apparent affinity.
Test [2] concerns the target B.MNgp120Δ11. The experiment in a line: SPR; apparent affinity. (In general: Surface plasmon resonance follows binding to a sensor surface in real time, without labels.)

B1: DH677.3 MAb (antibody, V domains shown)
VH: QVQLVQSGAEVQKPGASVKVSCKASGYTFASYDINWVRQATGQGLEWMGWMNPKTGNTGYAQKFQGRVTLTRNTSISTAYMELTSLRSEDTAVYYCATYRIIAAVGYRYFQYWGQGTLVTVSS
VL: DIQLTQSPSSLSASVGDSVTITCRASQGFGNYLAWYQQRPGKVPEVLIYAATTLQSGVPSRFSGSGSGTDFTLTISSLQPEDVATYYCQKYNSAPFTFGQGTRLEIK
In the case of B1, the Kd stood at 0.6 nM in test [1] and 7.02 nM in test [2].
